Laboratory results from paper PMC9692976, “Characterization of a Glycolipid Synthase Producing α-Galactosylceramide in Bacteroides fragilis” (International Journal of Molecular Sciences, 2022).

Key:
[1] = test system: O=c1ccn([C@@H]2O[C@H](COP(=O)(O)OP(=O)(O)O[C@H]3O[C@H](CO)[C@H](O)[C@H](O)[C@H]3O)[C@@H](O)[C@H]2O)c(=O)[nH]1; assay: purified protein; conditions: 25 µM Cer-NBD with equimolar BSA, pH 7.5, 37 °C, fit with substrate inhibition
[2] = test system: CCCCCCCCCCCCC/C=C/[C@@H](O)[C@H](CO)NC(=O)CCCCCNc1ccc([N+](=O)[O-])c2nonc12; assay: purified protein; conditions: 1.25 mM UDP-Gal, Cer-NBD solubilized with equimolar BSA, pH 7.5, 37 °C, fit with substrate inhibition, labelled compound
[3] = target: T1, αGalCer_GT (BF9343_3149; αCerGal_GT) (Bacteroides fragilis, UniProt A0A380YRQ3); assay: HPLC with fluorescence detection of αGalCer-NBD, initial rates; assay type: biochemical; conditions: substrate inhibition constant; second site; 1.25 mM UDP-Gal, Cer-NBD solubilized with equimolar BSA, pH 7.5, 37 °C; labelled compound
T1 construct: full length, SUMO fusion at N-terminus and Strep-tag (C-terminal in Results; Methods also says N-terminal Strep-tag), tags kept, codon-optimised gene, E. coli BL21(DE3) Star, StrepTrap purified
T1 sequence (A0A380YRQ3 entry or part of it): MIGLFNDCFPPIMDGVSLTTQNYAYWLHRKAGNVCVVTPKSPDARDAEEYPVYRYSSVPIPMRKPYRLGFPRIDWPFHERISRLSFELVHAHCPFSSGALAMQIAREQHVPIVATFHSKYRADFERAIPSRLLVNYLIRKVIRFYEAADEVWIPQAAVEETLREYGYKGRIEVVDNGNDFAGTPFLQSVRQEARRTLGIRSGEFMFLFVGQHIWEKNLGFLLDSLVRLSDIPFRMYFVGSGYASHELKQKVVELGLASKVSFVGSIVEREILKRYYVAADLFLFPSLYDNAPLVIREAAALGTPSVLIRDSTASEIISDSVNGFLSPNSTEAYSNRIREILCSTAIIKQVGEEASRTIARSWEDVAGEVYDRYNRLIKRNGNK

Compound | Km [1] [µM] | Km [2] [µM] | KI [3] [µM]
αGalCer_GT (BF9343_3149; αCerGal_GT) (Bacteroides fragilis NCTC 9343) | 218 | 4.6 | –
CCCCCCCCCCCCC/C=C/[C@@H](O)[C@H](CO)NC(=O)CCCCCNc1ccc([N+](=O)[O-])c2nonc12 [Cer-NBD, N-[6-[(7-nitro-2-1,3-benzoxadiazol-4-yl)amino]hexanoyl]-D-erythro-sphin-gosine] | – | – | 161
